Measured values from article PMC6630525 (Molecules, 2019).
Values joined by “and” are separate entries in the source; they are usually repeats but may differ in a detail not shown here. Equal entries are not always repeated.

B1: full-length Arabidopsis thaliana NAP1-Related Protein 1 (AtNRP1-His) (natural protein, UniProt Q9CA59 1-256, looked up)
chain: MVADKSKKSKIEEKGEEENLEQIDAELVLSIEKLQEIQDDLEKINEKASDEVLEVEQKYNVIRKPVYDKRNEVIQSIPGFWMTAFLSHPALGDLLTEEDQKIFKYLNSLEVEDAKDVKSGYSITFHFTSNPFFEDAKLTKTFTFLEEGTTKITATPIKWKEGKGLPNGVNHDDKKGNKRALPEESFFTWFTDAQHKEDAGDEIHDEVADIIKEDLWSNPLTYFNNDADEEDFDGDDDGDEEGEEDDDDEEEEDGEE
notes: NAP1-related protein 1 (AtNRP1), Arabidopsis thaliana; full-length ORF optimised for bacterial expression (Genscript) in pET22b(+) between NdeI and XhoI; also called full-length AtNRP1; not shown: His6, C-terminal, kept
B2: full-length Arabidopsis thaliana NAP1-Related Protein 2 (AtNRP2-His) (natural protein, UniProt Q8LC68-2 1-256, looked up)
chain: MVTDKSKKAKTEEENVEQIDAELVLSIEKLQEIQDDLEKINEKASDEVLEVEQKYNVIRKPVYDKRNEIIKTIPDFWLTAFLSHPALGELLTEEDQKIFKYLSSLDVEDAKDVKSGYSITFSFNPNPFFEDGKLTKTFTFLEEGTTKITATPIKWKEGKGLANGVNHEKNGNKRALPEESFFTWFSDAQHKEDVEDEMQDEQVADIIKEDLWPNPLTYFNNDADEEDFDGDDDGDEEEKEGDSDEDDDEEDEVGEE
notes: NAP1-related protein 2 (AtNRP2), Arabidopsis thaliana; full-length ORF optimised for bacterial expression (Genscript) in pET22b(+) between NdeI and XhoI; Predominantly a dimer in solution; tetramer and a higher species also seen by AUC; also called full-length AtNRP2; not shown: His6, C-terminal, kept
B3: AtNRP2 NT/CT (AtNRP2 residues 14-223) (domain or fragment, Arabidopsis thaliana, UniProt Q8LC68-2 14-223, looked up)
chain: ENVEQIDAELVLSIEKLQEIQDDLEKINEKASDEVLEVEQKYNVIRKPVYDKRNEIIKTIPDFWLTAFLSHPALGELLTEEDQKIFKYLSSLDVEDAKDVKSGYSITFSFNPNPFFEDGKLTKTFTFLEEGTTKITATPIKWKEGKGLANGVNHEKNGNKRALPEESFFTWFSDAQHKEDVEDEMQDEQVADIIKEDLWPNPLTYFNNDA
notes: NAP1-related protein 2 (AtNRP2), Arabidopsis thaliana, residues 14-223 (first 13 and last 35 residues removed), in pGEX-6P-1 between BamHI and SalI; A few vector residues may remain at the N-terminus after PreScission cleavage (surmise); Heated at 40 °C for 10 min before crystallization; also called AtNRP2_(14-223); GST-AtNRP2_(14-223); not shown: GST, N-terminal, cleaved
B4: AtNRP1 NT/CT (AtNRP1 residues 14-226) (domain or fragment, Arabidopsis thaliana, UniProt Q9CA59 14-226, looked up)
chain: KGEEENLEQIDAELVLSIEKLQEIQDDLEKINEKASDEVLEVEQKYNVIRKPVYDKRNEVIQSIPGFWMTAFLSHPALGDLLTEEDQKIFKYLNSLEVEDAKDVKSGYSITFHFTSNPFFEDAKLTKTFTFLEEGTTKITATPIKWKEGKGLPNGVNHDDKKGNKRALPEESFFTWFTDAQHKEDAGDEIHDEVADIIKEDLWSNPLTYFNND
notes: NAP1-related protein 1 (AtNRP1), Arabidopsis thaliana, residues 14-226, in pGEX-6P-1 between BamHI and SalI; A few vector residues may remain at the N-terminus after PreScission cleavage (surmise); also called AtNRP1_(14-226); GST-AtNRP1_(14-226); not shown: GST, N-terminal, cleaved

Tests used:
[1] = molecular target: the molecule itself; test: SEC; analytical gel filtration, Superdex 200 10/300 GL, 4 °C, 20 mM Tris-HCl with 0.2, 0.5 or 2.0 M NaCl after dialysis into the same buffer
[2] = molecular target: the molecule itself; test: AUC; sedimentation velocity, 40,000 rpm, 20 °C, samples diluted in SEC buffer to OD280 0.5; c(s) distribution and non-interacting species model
[3] = molecular target: the molecule itself; test: SAXS; ESRF BM29, samples at 5, 3 and 2 mg/mL, 10 °C; molecular mass estimated with ATSAS

Row | Protein | stoichiometry N [2] | other results
1 | B1 |  | binding result [1]: binds
2 | B2 | 2 and 4 | 
3 | B3 | 2 | 
4 | B4 |  | stoichiometry N [3]: 2
